# How the values were obtained:
# [1] = biological target: mouse hexabrachion (mouse (endogenous in 3T3 cells)) (UniProt Q80YX1); test: rotary shadowing electron microscopy
# [2] = biological target: rat hexabrachion (rat (endogenous in normal rat kidney cells)); test: rotary shadowing electron microscopy
Substance,stoichiometry N [1],stoichiometry N [2]
"mouse hexabrachion, Q80YX1 23-2110",6,–
rat hexabrachion,–,6

# Reference: publication PMC2114792
